Measured values reported in patent US20130072665A1 (Amgen, published 2013).
Like-named read-outs stand apart in the source and are kept apart here.

T1: PCSK9 V domain (450-692 of SEQ ID NO: 3) (human, UniProt Q8NBP7 450-692)
T1 construct: also called v-domain PCSK9
T1 chain: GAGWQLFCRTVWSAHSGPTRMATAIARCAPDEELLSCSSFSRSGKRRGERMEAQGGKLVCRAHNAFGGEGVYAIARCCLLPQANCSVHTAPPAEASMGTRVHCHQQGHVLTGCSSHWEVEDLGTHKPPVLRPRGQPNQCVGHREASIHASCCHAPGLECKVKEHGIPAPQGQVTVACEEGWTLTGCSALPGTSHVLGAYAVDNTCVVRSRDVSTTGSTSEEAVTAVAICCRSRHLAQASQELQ


Columns and labels:
Experiment in all cases: domain binding ELISA (coated antibody captures the PCSK9 form; OD650)
[1] = target: T1, PCSK9 V domain (450-692 of SEQ ID NO: 3)
Protocol: (§1) Clear, 96 well maxisorp plates (Nunc) were coated overnight with 2 ug/ml of various anti-PCSK9 antibodies diluted in PBS. Plates were washed thoroughly with PBS/0.05% Tween-20 and then blocked for two hours with 3% BSA/PBS.

[2] = target: T2, PCSK9 ProCat (31-449 of SEQ ID NO: 3) (human, UniProt Q8NBP7 27-449)
T2 construct: From PCSK9 449TEV after rTEV cleavage: GAMG-PCSK9 (31-449)-ENLYFQ; Written as one chain; autocatalysis between 152 and 153 splits pro-domain and catalytic domain; also called procat PCSK9; PCSK9 31-449
Protocol: as §1

[3] = target: T1, PCSK9 V domain (450-692 of SEQ ID NO: 3)
Protocol: as §1

[4] = target: T2, PCSK9 ProCat (31-449 of SEQ ID NO: 3); remark: listed apart in the source
Protocol: as §1

Row | Binder | binding result [1] | binding result [2] | binding result [3] | binding result [4]
1 | 30B9 (antibody, V domains shown) VH: QVQLVQSGAEVKKPGASVKVSCKASGYPLTSYGISWVRQAPGQGLEWMGWISAYNGNTNYAQKVQGRVTMTTDTSTSTVYMELRSLRSDDTAVYYCARGYGMDVWGQGTTVTVSS VL: QSALTQPASVSGSPGQSITISCTGTSSDVGGYNSVSWYQQHPGKPPKLMIYEVSNRPSGVSNRFSGSKSGNTASLTISGLQAEDEADYFCSSYTSTSMVFGGGTKLTVL | no binding | binds | – | –
2 | 3B6 (antibody, V domains shown) VH: QVQLVQSGAEVKKPGASVKVSCKASGYTFTSYGISWVRQAPGQGLEWMGWISTYNGNTNYAQKVQGRVTMTTDTSTSTAYMELRSLRSDDTAVYYCARGYTRDYWGQGTLVTVSS VL: QPVLTQPLFASASLGASVTLTCTLSSGYSSYEVDWYQQRPGKGPRFVMRVDTGGIVGSKGEGIPDRFSVLGSGLNRYLTIKNIQEEDESDYHCGADHGSGTNFVVVFGGGTKLTVL | – | – | no binding | binds
3 | 17C2.1 (antibody, V domains shown, subclone) VH: QVQLVQSGAEVKKPGASVKVSCKASGYSFTSYGISWVRQAPGQGLEWMGWVSAYNGNTNYAQKFQGRVTMTTDTSTSTAYMELRSLRSDDTAVYYCARGYVMDVWGQGTTVTVSS VL: QSALTQPASVFGSPGQSITISCTGTSSDVGAYNSVSWYQQHPGKAPKRMIYEVSNRPSGVSNRFSGSKSGNTASLTISGLQAEDEADYYCSSYTSTNMVFGGGTKLTVL | no binding | – | – | –
4 | 26E10.1 (antibody, V domains shown, subclone) VH: QVQLVQSGAEVKKPGASVKVSCKASGYTLTSYGISWVRQAPGQGLEWMGWVSFYNGNTNYAQKLQGRGTMTTDPSTSTAYMELRSLRSDDTAVYYCARGYGMDVWGQGTTVTVSS VL: QSALTQPASVSGSPGQSITISCTGTSSDVGGYNSVSWYQQHPGKAPKLMIYEVSNRPSGVFNRFSGSKSGNTASLTISGLQAEDEADYYCNSYTSTSMVFGGGTKLTVL | no binding | – | – | –
5 | 19H9 (antibody, V domains shown, also called 19H9.2) VH: QVQLVQSGAEVKKPGASVKVSCKASGYALTSYGISWVRQAPGQGLEWMGWISAYNGNTNYAQKVQGRVTMTTDTSTSTVYMELRSLRSDDTAVYYCARGYGMDVWGQGTTVTVSS VL: QSALTQPASVSGSPGQSITISCTGTNSDVGGYNSVSWYQQHPGKPPKLMIYEVSNRPSGISNRFSGSKSGNTASLTISGLQAEDEADYFCSSYTSTSMVFGGGTKLTVL | no binding | binds | – | –
6 | 23G1 (antibody, V domains shown) VH: QVQLVQSGAEVKKPGASVKVSCKASGYTLTSYGISWVRQAPGQGLEWMGWVSFYNGNTNYAQKLQGRGTMTTDPSTSTAYMELRSLRSDDTAVYYCARGYGMDVWGQGTTVTVSS VL: QSALTQPASVSGSPGQSITISCTGTSSDVGGYNSVSWYQQHPGKAPKLMIYEVTNRPSGVSNRFSGSKSGNTASLTISGLQAEDEADYYCNSYTSTSMVFGGGTKLTVL | – | – | no binding | binds
7 | 27E7 (antibody, V domains shown) VH: QVQLVQSGAEVKKPGASLKVSCKASGYSLTSYGISWVRQAPGQGLEWMGWISAYNGNTNYAQKVQGRVTMTTDTSTSTVYMEVRSLRSDDTAVYYCARGYGMDVWGQGTTVTVSS VL: QSALTQPASVSGSPGQSITISCTGTSSDVGGYNSVSWYQQHPGKPPKLMIYEVSNRPSGVSNRFSGSKSGNTASLTISGLQAEDEADYFCSSYTSTSMVFGGGTKLTVL | no binding | binds | – | –
8 | 20D10 (antibody, V domains shown) VH: QIQLVQSGAEVKKPGASVKVSCKASGYPLTSYGISWVRQAPGQGLEWMGWISAYNGNTNYAQKVQGSVTMTTDTSTSTVYMELRSLRSDDTAVYYCARGYGMDVWGQGTTVTVSS VL: QSALTQPASVSGSPGQSITISCTGTSSDVGGYNSVSWYQQYPGKPPKLKIYEVSNRPSGVSNRFSGSKSGNTASLTISGLQAEDEADYFCSSYTSTSMVFGGGTKLTVL | – | – | no binding | binds
9 | 31D1 (antibody, V domains shown) VH: QIQLVQSGAEVKKPGASVKVSCKASGYTLTSYGISWVRQAPGQGLEWMGWISFYNGNTNYAQKVQGRVTMTTDTSTSTVYMELRSLRSDDTAVYFCARGYGMDVWGQGTTVTVSS VL: QSALTQPASVSGSPGQSITISCTGTSSDVGGYNSVSWYQQHPGKPPKLMIYEVSNRPSGVSNRFSGSKSGNTASLTISGLQAEDEADYFCSSYTSTSMVFGGGTKLAVL | – | – | no binding | binds
10 | 27H5 (antibody, V domains shown) VH: QVQLVQSGAEVKRPGASVKVSCKASGYTLTSYGISWVRQAPGQGLEWMGWISVYNGNTNYAQKVQGRVTMTTDTSTSTVYMELRSLSSDDTAVYYCARGYGMDVWGQGTTVTVSS VL: QSALTQPASVSGSPGQSITISCTGTSSDVGGYNSVSWYQQHPGKPPKLMIYEVSNRPSGVSIRFSGSKSGNTASLTISGLQAEDEADYFCSSYTSTSMVFGGGTKLTVL | no binding | binds | – | –
11 | 31B12 (antibody, V domains shown) VH: QVQLVESGGGVVQPGRSLRLSCAASGFTFSSYGMHWVRQAPGKGLEWVAIIWYDGSNKYYADSVKGRFTISRDNSKNTLYLQMNSLRAEDTAVYYCARRGGLAARPGGMDVWGQGTTVTVSS VL: SYELTQPPSVSVSPGQTARITCSGDKLGDKYACWYQQKPGQSPVLVIYQNTKWPLGIPERFSGSKSGNTVTLTISGTQAMDEADYYCQAWDSSTVVFGGGTKLTVL | no binding | – | – | –
12 | 22E2 (antibody, V domains shown) VH: QVQLVESGGGVVQPGRSLRLSCAASGFTFSSFGMHWVRQAPGKGLEWVALIWNDGSNKYYADSVKGRFTISRDNSKNTLYLQMNSLRAEDTAVYYCARAIAALYYYYGMDVWGQGTTVTVSS VL: QSVLTQPPSVSAAPGQKVTISCSGSSSNIGNNFVSWYQQLPGTAPKLLIYDYNKRPSGIPDRFSGSKSGTSATLGITGLQTGDEADYYCGTWDSSLSGYVFGTGTRVTVL | – | – | no binding | binds
13 | 13B5 (antibody, V domains shown) VH: EVQLLESGGGLVQPGGSLRLSCAASGFTFSSYAMSWVRQAPGKGLEWVSTISGSGGRTYYADSVKGRFTISRDNSKNTLYLQMNSLRAEDTAVYYCAKEVGSPFDYWGQGTLVTVSS VL: QSVLTQPPSVSAAPGQKVTISCSGSNSNIGNNYVSWYQQLPGTAPKLLIYDNNKRPSGIPDRFSGSNSGTSATLGITGLQTGDEADYYCGTWDSSLSAVVFGGGTKLTVL | – | no binding | – | –
14 | 28B12 (antibody, V domains shown) VH: QVQLVESGGGVVQPGRSLRLSCAASGFTFSSFGMHWVRQAPGKGLEWVALIWNDGSNKYYADSVKGRFTISRDNSKNTLYLQMNSLRAEDTAVYYCARAIAALYYYYGMDVWGHGTTVTVSS VL: QSVLTQPPSVSAAPGQKVTISCSGSSSNIGNNFVSWYQQLPGTAPKLLIYDYNKRPSGIPDRFSGSKSGTSATLGITGLQTGDEADYYCGTWDSSLSGYVFGTGTRVTVL | – | – | no binding | binds
15 | 27A6 (antibody, V domains shown) VH: QVHLVESGGGVVQPGRSLRLSCAASGFTFNSFGMHWVRQAPGKGLEWVALIWSDGSDKYYADSVKGRFTISRDNSKNTLYLQMNSLRAEDTAVYYCARAIAALYYYYGMDVWGQGTTVTVSS VL: QSVLTQPPSVSAAPGQKVTISCSGSSSNIGNNFVSWYQQFPGTAPKLLIYDYNKRPSGIPDRFSGSKSGTSATLGITGLQTGDEADYYCGTWDSSLSSYVFGTGTRVTVL | – | – | no binding | binds
16 | 28D6 (antibody, V domains shown) VH: QVQLVESGGGVVQPGRSLRLSCAASGFTFSSFGMHWVRQAPGKGLEWVALIWNDGSNKYYADSVKGRFTISRDNSKNTLYLQMNSLRAEDTAVYYCARAIAALYYYYGMDVWGQGTTVTVSS VL: QSVLTQPPTVSAAPGQKVTISCSGSSSNIGNNFVSWYQQLPGTAPKLLIYDYNKRPSGIPDRFSGSKSGTSATLGITGLQTGDEADYYCGTWDSSLSGYVFGTGTRVTVL | – | – | no binding | binds
17 | 31G11 (antibody, V domains shown) VH: QVQLVESGGGVVQPGRSLRLSCAASGFTFRSYGMHWVRQAPGKGLEWVALIWHDGSNTYYVDSVKGRFTISRDNSKNTLYLQMNSLRAEDTAVYYCARGIAVAYYYYGMDVWGQGTTVTVSS VL: QSVLTQPPSVSAAPGQKVTISCSGSSSNIGNNFVSWYQQLPGTAPKLLIYDSNKRPSGIPDRFSGSKSGTSATLDITGLQTGDEADYYCGTWDSSLSAYVFGTGTKVTVL | – | – | no binding | –
18 | 16F12 (antibody, V domains shown, lambda light chain) VH: QVHLVESGGGVVQPGRSLRLSCAASGFTFNSFGMHWVRQAPGKGLEWVALIWSDGSDEYYADSVKGRFTISRDNSKNTLYLQMNSLRAEDTAVYYCARAIAALYYYYGMDVWGQGTTVTVSS VL: QSVLTQPPSVSAAPGQKVTISCSGSSSNIGNNFVSWYQQLPGTAPKLLIYDYNKRPSGIPDRFSGSKSGTSATLGITGLQTGDEADYYCGTWDSSLSAYVFGTGTRVTVL | – | – | no binding | –
